In test [1] the target is cytoplasmic domain of Fas antigen expressed as GAL4bd chimera (yeast, UniProt P04386). The experiment in a line: yeast two-hybrid, strain SFY526.
The target of test [2] is GST fusion protein containing the cytoplasmic domain of Fas antigen (Homo sapiens (Human), UniProt P25445). The experiment in a line: GST pull-down of 35S-labeled TRADD.

Results on two molecules are retold here after US5563039, “TNF receptor-associated intracellular signaling proteins and methods of use” (Tularik, Inc., dated 1996).

B1: GAL4ad-TRADD (GAL4 activation domain fused to full length TRADD) (other)
chain: MAAGQNGHEEWVGSAYLFVESSLDKVVLSDAYAHPQQKVAVYRALQAALAESGGSPDVLQMLKIHRSDPQLIVQLRFCGRQPCGRFLRAYREGALRAALQRSLAAALAQHSVPLQLELRAGAERLDALLADEERCLSCILAQQPDRLRDEELAELEDALRNLKCGSGARGGDGEVASAPLQPPVPSLSEVKPPPPPPPAQTFLFQGQPVVNRPLSLKDQQTFARSVGLKWRKVGRSLQRGCRALRDPALDSLAYEYEREGLYEQAFQLLRRFVQAEGRRATLQRLVEALEENELTSLAEDLLGLTDPNGGLA
On to B1, for which, in test [1], the binding result is given as “no binding”.

B2: 35S-labeled TRADD prepared by in vitro transcription and translation (other)
chain: MAAGQNGHEEWVGSAYLFVESSLDKVVLSDAYAHPQQKVAVYRALQAALAESGGSPDVLQMLKIHRSDPQLIVQLRFCGRQPCGRFLRAYREGALRAALQRSLAAALAQHSVPLQLELRAGAERLDALLADEERCLSCILAQQPDRLRDEELAELEDALRNLKCGSGARGGDGEVASAPLQPPVPSLSEVKPPPPPPPAQTFLFQGQPVVNRPLSLKDQQTFARSVGLKWRKVGRSLQRGCRALRDPALDSLAYEYEREGLYEQAFQLLRRFVQAEGRRATLQRLVEALEENELTSLAEDLLGLTDPNGGLA
modifications: 35S-labeled
Consider B2, for which the binding result in test [2] is on record as “no binding”.
